# Data taken from patent US20190338009A1 (ZEALAND PHARMA A S, published 2019).
# Square brackets hold non-standard residues; d marks the D form. Aib = CC(C)(N)C(=O)O
# T1: human GLP-2 receptor (hGLP2-R) (human, UniProt O95838 1-553)
# T1 sequence (looked up): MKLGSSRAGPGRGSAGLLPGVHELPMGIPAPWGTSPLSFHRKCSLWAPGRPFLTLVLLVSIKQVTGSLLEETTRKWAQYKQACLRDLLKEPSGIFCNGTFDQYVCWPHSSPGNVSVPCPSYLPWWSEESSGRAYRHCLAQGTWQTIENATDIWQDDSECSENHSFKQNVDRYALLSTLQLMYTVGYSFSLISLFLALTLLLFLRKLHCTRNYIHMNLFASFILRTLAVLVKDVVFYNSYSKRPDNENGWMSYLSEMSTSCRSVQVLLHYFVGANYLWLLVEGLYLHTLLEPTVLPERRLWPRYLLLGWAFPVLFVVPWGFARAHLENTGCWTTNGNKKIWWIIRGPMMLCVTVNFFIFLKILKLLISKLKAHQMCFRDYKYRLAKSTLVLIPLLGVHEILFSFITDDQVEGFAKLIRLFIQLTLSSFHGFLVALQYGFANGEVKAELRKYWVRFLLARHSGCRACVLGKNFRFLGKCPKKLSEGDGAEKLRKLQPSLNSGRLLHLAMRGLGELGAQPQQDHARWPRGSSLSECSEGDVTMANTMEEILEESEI
# Columns and labels:
# [1] = molecular target: human glucagon-like peptide 1 receptor (GLP-1R) (human, UniProt P43220 24-463); test: cell-based or functional assay
# [2] = molecular target: T1, human GLP-2 receptor (hGLP2-R); test: cell-based or functional assay
Binder,"EC50 GLP-1 (nM); cAMP AlphaScreen, HEK293 cells expressing human GLP-1R [1] [nM]","EC50 GLP-2 (nM); cAMP AlphaScreen, HEK293 cells expressing human GLP-2R [2] [nM]"
H-H[Aib]EGTFTSELATILDEQAARDFIAWLIRHKITD-OH (SMILES CC[C@H](C)[C@H](NC(=O)[C@H](Cc1ccccc1)NC(=O)[C@H](CC(=O)O)NC(=O)[C@H](CCCNC(=N)N)NC(=O)[C@H](C)NC(=O)[C@H](C)NC(=O)[C@H](CCC(N)=O)NC(=O)[C@H](CCC(=O)O)NC(=O)[C@H](CC(=O)O)NC(=O)[C@H](CC(C)C)NC(=O)[C@@H](NC(=O)[C@@H](NC(=O)[C@H](C)NC(=O)[C@H](CC(C)C)NC(=O)[C@H](CCC(=O)O)NC(=O)[C@H](CO)NC(=O)[C@@H](NC(=O)[C@H](Cc1ccccc1)NC(=O)[C@@H](NC(=O)CNC(=O)[C@H](CCC(=O)O)NC(=O)C(C)(C)NC(=O)[C@@H](N)Cc1c[nH]cn1)[C@@H](C)O)[C@@H](C)O)[C@@H](C)O)[C@@H](C)CC)C(=O)N[C@@H](C)C(=O)N[C@@H](Cc1c[nH]c2ccccc12)C(=O)N[C@@H](CC(C)C)C(=O)N[C@H](C(=O)N[C@@H](CCCNC(=N)N)C(=O)N[C@@H](Cc1c[nH]cn1)C(=O)N[C@@H](CCCCN)C(=O)N[C@H](C(=O)N[C@H](C(=O)N[C@@H](CC(=O)O)C(=O)O)[C@@H](C)O)[C@@H](C)CC)[C@@H](C)CC) [Compound 17],0.006,0.066
H-H[Aib]EGSFTSELATILDEQAARDFIAWLYEHKITD-OH (SMILES CC[C@H](C)[C@H](NC(=O)[C@H](Cc1ccccc1)NC(=O)[C@H](CC(=O)O)NC(=O)[C@H](CCCNC(=N)N)NC(=O)[C@H](C)NC(=O)[C@H](C)NC(=O)[C@H](CCC(N)=O)NC(=O)[C@H](CCC(=O)O)NC(=O)[C@H](CC(=O)O)NC(=O)[C@H](CC(C)C)NC(=O)[C@@H](NC(=O)[C@@H](NC(=O)[C@H](C)NC(=O)[C@H](CC(C)C)NC(=O)[C@H](CCC(=O)O)NC(=O)[C@H](CO)NC(=O)[C@@H](NC(=O)[C@H](Cc1ccccc1)NC(=O)[C@H](CO)NC(=O)CNC(=O)[C@H](CCC(=O)O)NC(=O)C(C)(C)NC(=O)[C@@H](N)Cc1c[nH]cn1)[C@@H](C)O)[C@@H](C)O)[C@@H](C)CC)C(=O)N[C@@H](C)C(=O)N[C@@H](Cc1c[nH]c2ccccc12)C(=O)N[C@@H](CC(C)C)C(=O)N[C@@H](Cc1ccc(O)cc1)C(=O)N[C@@H](CCC(=O)O)C(=O)N[C@@H](Cc1c[nH]cn1)C(=O)N[C@@H](CCCCN)C(=O)N[C@H](C(=O)N[C@H](C(=O)N[C@@H](CC(=O)O)C(=O)O)[C@@H](C)O)[C@@H](C)CC) [Compound 23],0.12,0.034
H-H[Aib]EGTFTSELATILDEQAARDFIAWLIAYKITD-OH (SMILES CC[C@H](C)[C@H](NC(=O)[C@H](CC(C)C)NC(=O)[C@H](Cc1c[nH]c2ccccc12)NC(=O)[C@H](C)NC(=O)[C@@H](NC(=O)[C@H](Cc1ccccc1)NC(=O)[C@H](CC(=O)O)NC(=O)[C@H](CCCNC(=N)N)NC(=O)[C@H](C)NC(=O)[C@H](C)NC(=O)[C@H](CCC(N)=O)NC(=O)[C@H](CCC(=O)O)NC(=O)[C@H](CC(=O)O)NC(=O)[C@H](CC(C)C)NC(=O)[C@@H](NC(=O)[C@@H](NC(=O)[C@H](C)NC(=O)[C@H](CC(C)C)NC(=O)[C@H](CCC(=O)O)NC(=O)[C@H](CO)NC(=O)[C@@H](NC(=O)[C@H](Cc1ccccc1)NC(=O)[C@@H](NC(=O)CNC(=O)[C@H](CCC(=O)O)NC(=O)C(C)(C)NC(=O)[C@@H](N)Cc1c[nH]cn1)[C@@H](C)O)[C@@H](C)O)[C@@H](C)O)[C@@H](C)CC)[C@@H](C)CC)C(=O)N[C@@H](C)C(=O)N[C@@H](Cc1ccc(O)cc1)C(=O)N[C@@H](CCCCN)C(=O)N[C@H](C(=O)N[C@H](C(=O)N[C@@H](CC(=O)O)C(=O)O)[C@@H](C)O)[C@@H](C)CC) [Compound 20],0.012,0.26
H-H[Aib]EGTFTSELATILDEQAARDFIAWLIAQKITD-OH (SMILES CC[C@H](C)[C@H](NC(=O)[C@H](CC(C)C)NC(=O)[C@H](Cc1c[nH]c2ccccc12)NC(=O)[C@H](C)NC(=O)[C@@H](NC(=O)[C@H](Cc1ccccc1)NC(=O)[C@H](CC(=O)O)NC(=O)[C@H](CCCNC(=N)N)NC(=O)[C@H](C)NC(=O)[C@H](C)NC(=O)[C@H](CCC(N)=O)NC(=O)[C@H](CCC(=O)O)NC(=O)[C@H](CC(=O)O)NC(=O)[C@H](CC(C)C)NC(=O)[C@@H](NC(=O)[C@@H](NC(=O)[C@H](C)NC(=O)[C@H](CC(C)C)NC(=O)[C@H](CCC(=O)O)NC(=O)[C@H](CO)NC(=O)[C@@H](NC(=O)[C@H](Cc1ccccc1)NC(=O)[C@@H](NC(=O)CNC(=O)[C@H](CCC(=O)O)NC(=O)C(C)(C)NC(=O)[C@@H](N)Cc1c[nH]cn1)[C@@H](C)O)[C@@H](C)O)[C@@H](C)O)[C@@H](C)CC)[C@@H](C)CC)C(=O)N[C@@H](C)C(=O)N[C@@H](CCC(N)=O)C(=O)N[C@@H](CCCCN)C(=O)N[C@H](C(=O)N[C@H](C(=O)N[C@@H](CC(=O)O)C(=O)O)[C@@H](C)O)[C@@H](C)CC) [Compound 19],0.005,0.15
H-H[Aib]EGTFTSELATILDEQAARDFIAWLHQHKITD-OH (SMILES CC[C@H](C)[C@H](NC(=O)[C@H](Cc1ccccc1)NC(=O)[C@H](CC(=O)O)NC(=O)[C@H](CCCNC(=N)N)NC(=O)[C@H](C)NC(=O)[C@H](C)NC(=O)[C@H](CCC(N)=O)NC(=O)[C@H](CCC(=O)O)NC(=O)[C@H](CC(=O)O)NC(=O)[C@H](CC(C)C)NC(=O)[C@@H](NC(=O)[C@@H](NC(=O)[C@H](C)NC(=O)[C@H](CC(C)C)NC(=O)[C@H](CCC(=O)O)NC(=O)[C@H](CO)NC(=O)[C@@H](NC(=O)[C@H](Cc1ccccc1)NC(=O)[C@@H](NC(=O)CNC(=O)[C@H](CCC(=O)O)NC(=O)C(C)(C)NC(=O)[C@@H](N)Cc1c[nH]cn1)[C@@H](C)O)[C@@H](C)O)[C@@H](C)O)[C@@H](C)CC)C(=O)N[C@@H](C)C(=O)N[C@@H](Cc1c[nH]c2ccccc12)C(=O)N[C@@H](CC(C)C)C(=O)N[C@@H](Cc1c[nH]cn1)C(=O)N[C@@H](CCC(N)=O)C(=O)N[C@@H](Cc1c[nH]cn1)C(=O)N[C@@H](CCCCN)C(=O)N[C@H](C(=O)N[C@H](C(=O)N[C@@H](CC(=O)O)C(=O)O)[C@@H](C)O)[C@@H](C)CC) [Compound 21],0.049,0.11
H-H[Aib]EGTFTSELATILDEQAARDFIAWLISHKITD-OH (SMILES CC[C@H](C)[C@H](NC(=O)[C@H](Cc1ccccc1)NC(=O)[C@H](CC(=O)O)NC(=O)[C@H](CCCNC(=N)N)NC(=O)[C@H](C)NC(=O)[C@H](C)NC(=O)[C@H](CCC(N)=O)NC(=O)[C@H](CCC(=O)O)NC(=O)[C@H](CC(=O)O)NC(=O)[C@H](CC(C)C)NC(=O)[C@@H](NC(=O)[C@@H](NC(=O)[C@H](C)NC(=O)[C@H](CC(C)C)NC(=O)[C@H](CCC(=O)O)NC(=O)[C@H](CO)NC(=O)[C@@H](NC(=O)[C@H](Cc1ccccc1)NC(=O)[C@@H](NC(=O)CNC(=O)[C@H](CCC(=O)O)NC(=O)C(C)(C)NC(=O)[C@@H](N)Cc1c[nH]cn1)[C@@H](C)O)[C@@H](C)O)[C@@H](C)O)[C@@H](C)CC)C(=O)N[C@@H](C)C(=O)N[C@@H](Cc1c[nH]c2ccccc12)C(=O)N[C@@H](CC(C)C)C(=O)N[C@H](C(=O)N[C@@H](CO)C(=O)N[C@@H](Cc1c[nH]cn1)C(=O)N[C@@H](CCCCN)C(=O)N[C@H](C(=O)N[C@H](C(=O)N[C@@H](CC(=O)O)C(=O)O)[C@@H](C)O)[C@@H](C)CC)[C@@H](C)CC) [Compound 18],0.006,0.054
H-H[Aib]EGSFTSELATILDEQAARDFIAWLHAHKITD-OH (SMILES CC[C@H](C)[C@H](NC(=O)[C@H](Cc1ccccc1)NC(=O)[C@H](CC(=O)O)NC(=O)[C@H](CCCNC(=N)N)NC(=O)[C@H](C)NC(=O)[C@H](C)NC(=O)[C@H](CCC(N)=O)NC(=O)[C@H](CCC(=O)O)NC(=O)[C@H](CC(=O)O)NC(=O)[C@H](CC(C)C)NC(=O)[C@@H](NC(=O)[C@@H](NC(=O)[C@H](C)NC(=O)[C@H](CC(C)C)NC(=O)[C@H](CCC(=O)O)NC(=O)[C@H](CO)NC(=O)[C@@H](NC(=O)[C@H](Cc1ccccc1)NC(=O)[C@H](CO)NC(=O)CNC(=O)[C@H](CCC(=O)O)NC(=O)C(C)(C)NC(=O)[C@@H](N)Cc1c[nH]cn1)[C@@H](C)O)[C@@H](C)O)[C@@H](C)CC)C(=O)N[C@@H](C)C(=O)N[C@@H](Cc1c[nH]c2ccccc12)C(=O)N[C@@H](CC(C)C)C(=O)N[C@@H](Cc1c[nH]cn1)C(=O)N[C@@H](C)C(=O)N[C@@H](Cc1c[nH]cn1)C(=O)N[C@@H](CCCCN)C(=O)N[C@H](C(=O)N[C@H](C(=O)N[C@@H](CC(=O)O)C(=O)O)[C@@H](C)O)[C@@H](C)CC) [Compound 22],0.28,0.042
